Results as given in US20250101446A1, “METHOD FOR GENETIC TRANSFORMATION OF PLANT ORGANELLE GENOME AND USES THEREOF” (Solar Grants Biotechnology Inc., priority 2022, published 2025).

Legend:
LPS-stimulated PBMCs = experiment: Cytokine secretion from LPS-stimulated PBMCs treated with plantakines (multiplex Luminex); format: cell-based, human
Protocol: The bioactivity of our plantakines IL-37b and IL-38 was assessed by monitoring the secretion of 11 cytokines, generally regarded as inflammatory markers, from PBMCs stimulated with an IA. Freshly isolated human PBMCs were subjected to various treatments-combinations of the IAs with the plantakines at different concentrations. Two different model IAs were used, either the bacterial lipopolysaccharides (LPS) or a lectin from Phaseolus vulgaris (phytohaemagglutinin, PHA); each of the IAs was applied onto cells separately, each IA was applied at two concentrations: […]; PHA at 5 and 10 μg/mL. Each IA at each concentration was applied in combination with one of the two plantakines, each of them at three different concentrations: 1, 10 and 100 ng/ml of the monomeric forms present in the purified extracts. Also included were treatments comprised of either IA at their lower concentrations, in combination with both plantakines at 10 ng/ml concentration in order to assess possible synergistic effects. Cells with only IAs applied represented the reference (positive controls for each concentration), cells without any treatment represented the basal level (negative control). The levels of eleven different pro-inflammatory cytokines secreted into the medium from the PBMCs-GM-SCF, IFNγ. TNFα, IL-1α, IL-1β, IL-6, IL-8, IL-22, IL12, IL-17 and IL-10 were compared between the treatments and the controls. We applied Generalized Estimating Equation (GEE) model for the statistical data analysis. This statistical approach allows for nested observations and was used to test the effects of the plantakines IL-37b and IL-38 and their dosage in the context of IA-stimulated PBMCs inflammatory responses.
After isolation, the PBMCs from each donor separately were counted, plated in equal numbers per well and stimulated for 24 h with the applied treatments. Control wells on the plate contained media only (as basal level controls), and LPS and PHA (as positive controls at their corresponding concentrations). After the 24 h treatments stimulation the PBMCs' culture supernatants were used in the multiplex Luminex platform-assisted analysis of the concentrations of the 11 secreted pro-inflammatory cytokines.
The whole blood from 5 random human donors was collected in ACD Vacutainer tubes and immediately processed for isolation of PBMCs by gradient density centrifugation using Lympholyte. […] 5% CO2 and >80% humidity. PBMCs were treated with one of two IAs at 2 concentrations each ([…]; PHA at 5 and 10 μg/mL) in combination with two test items (plant-produced IL-37b or IL-38) at three concentrations each (1, 10 and 100 ng/ml), based on the monomeric form amounts estimated with densitometry (ImageJ). Each treatment was tested in triplicates. Control wells contained media only (negative control, basal level of detection) and the examined IAs at both tested concentrations as the positive controls. The PBMCs were incubated for 24 hours after the stimulation for analysis of the levels of the secreted cytokines that were determined in the culture supernatant using a multiplex immunoassay (MAGPix®, Luminex), analytes were selected from the Milliplex panel HCYTOMAG-60K, sensitivity range of […]. All parameters of the Milliplex panel cytokines analysis using Luminex platform were validated (Millipore-Sigma).
Non-linear logarithm transformation was performed to address non-normality of distribution of Luminex-derived numeric data. Generalized Estimating Equation (GEE) method was used in the analysis of nested (correlated) structure of the data. Secreted inflammatory cytokine values were used as dependent variables and test item (plantakines) with dosage as independent predictors (factors). Separate analyses were conducted for each of the 11 monitored cytokines and each inflammatory agent/concentration combination. Analysis was performed using SPSS software version 27 using the level of significance 0.05 (p-values <0.05 are reported as statistically significant). […]

[1] = test system: human NSCLC cell line NCI-H1792; experiment: Attenuation of P1-induced IL-6 secretion in NCI-H1792 cells by pre-treatment with plant-produced cytokines (ELISA); format: cell-based; conditions: H1792 cells; pre-incubated 3 h, 1.0 ng/ml; P1 24 h

B1: plant-produced recombinant human IL-38, mature form C2-W152 with C-terminal 7xHIS tag (ligand)
chain: CSLPMARYYIIKYADQKALYTRDGQLLVGDPVADNCCAEKICILPNRGLARTKVPIFLGIQGGSRCLACVETEEGPSLQLEDVNIEELYKGGEEATRFTFFQSSSGSAFRLEAAAWPGWFLCGPAEPQQPVQLTKESEPSARTKFYFEQSWHHHHHHH
notes: range 2-152; also called rhIL-38; plantakine IL-38
- secreted GM-CSF level modulation vs positive control (LPS-stimulated PBMCs; 1 ng/mL, LPS 150 pg/mL): −59.4%, p < 0.001
- secreted IL-1α level modulation vs positive control (LPS-stimulated PBMCs; 1 ng/mL, LPS 150 pg/mL): −25.9%, p < 0.001
- secreted IL-1β level modulation vs positive control (LPS-stimulated PBMCs; 1 ng/mL, LPS 150 pg/mL): −27.4%, p < 0.001
- secreted IL-6 level modulation vs positive control (LPS-stimulated PBMCs; 1 ng/mL, LPS 150 pg/mL): −7.7%, p = 0.178
- secreted IL-8 level modulation vs positive control (LPS-stimulated PBMCs; 1 ng/mL, LPS 150 pg/mL): 22.1%, p = 0.625
- secreted IL-10 level modulation vs positive control (LPS-stimulated PBMCs; 1 ng/mL, LPS 150 pg/mL): −14.8%, p = 0.040
- secreted IL-12 level modulation vs positive control (LPS-stimulated PBMCs; 1 ng/mL, LPS 150 pg/mL): 14.9%, p = 0.607
- secreted IL-17 level modulation vs positive control (LPS-stimulated PBMCs; 1 ng/mL, LPS 150 pg/mL): −21.3%, p = 0.004
- secreted IL-22 level modulation vs positive control (LPS-stimulated PBMCs; 1 ng/mL, LPS 150 pg/mL): −38.1%, p = 0.065
- secreted TNFα level modulation vs positive control (LPS-stimulated PBMCs; 1 ng/mL, LPS 150 pg/mL): −36.9%, p = 0.035
- secreted GM-CSF level modulation vs positive control (LPS-stimulated PBMCs; 1 ng/mL, LPS 300 pg/mL): −14.1%, p = 0.118
- secreted IFNγ level modulation vs positive control (LPS-stimulated PBMCs; 1 ng/mL, LPS 300 pg/mL): −16.5%, p = 0.006
- secreted IL-1α level modulation vs positive control (LPS-stimulated PBMCs; 1 ng/mL, LPS 300 pg/mL): −7.7%, p = 0.178
- secreted IL-1β level modulation vs positive control (LPS-stimulated PBMCs; 1 ng/mL, LPS 300 pg/mL): −13.1%, p < 0.001
- secreted IL-6 level modulation vs positive control (LPS-stimulated PBMCs; 1 ng/mL, LPS 300 pg/mL): −5.8%, p = 0.323
- secreted IL-10 level modulation vs positive control (LPS-stimulated PBMCs; 1 ng/mL, LPS 300 pg/mL): 6.2%, p = 0.006
- secreted IL-12 level modulation vs positive control (LPS-stimulated PBMCs; 1 ng/mL, LPS 300 pg/mL): 1.9%, p = 0.906
- secreted IL-17 level modulation vs positive control (LPS-stimulated PBMCs; 1 ng/mL, LPS 300 pg/mL): −28.8%, p < 0.001
- secreted IL-22 level modulation vs positive control (LPS-stimulated PBMCs; 1 ng/mL, LPS 300 pg/mL): −40.0%, p < 0.001
- secreted TNFα level modulation vs positive control (LPS-stimulated PBMCs; 1 ng/mL, LPS 300 pg/mL): −49.3%, p = 0.184
- secreted GM-CSF level modulation vs positive control (LPS-stimulated PBMCs; 10 ng/mL, LPS 150 pg/mL): 7.3%, p = 0.230
- secreted IFNγ level modulation vs positive control (LPS-stimulated PBMCs; 10 ng/mL, LPS 150 pg/mL): −16.5%, p = 0.012
- secreted IL-1α level modulation vs positive control (LPS-stimulated PBMCs; 10 ng/mL, LPS 150 pg/mL): −14.8%, p < 0.001
- secreted IL-1β level modulation vs positive control (LPS-stimulated PBMCs; 10 ng/mL, LPS 150 pg/mL): −13.1%, p = 0.002
- secreted IL-6 level modulation vs positive control (LPS-stimulated PBMCs; 10 ng/mL, LPS 150 pg/mL): 0.0%, p = 1.000
- secreted IL-8 level modulation vs positive control (LPS-stimulated PBMCs; 10 ng/mL, LPS 150 pg/mL): 8.3%, p = 0.639
- secreted IL-10 level modulation vs positive control (LPS-stimulated PBMCs; 10 ng/mL, LPS 150 pg/mL): −3.9%, p = 0.264
- secreted IL-12 level modulation vs positive control (LPS-stimulated PBMCs; 10 ng/mL, LPS 150 pg/mL): 51.1%, p = 0.522
- secreted IL-17 level modulation vs positive control (LPS-stimulated PBMCs; 10 ng/mL, LPS 150 pg/mL): −16.5%, p = 0.012
- secreted IL-22 level modulation vs positive control (LPS-stimulated PBMCs; 10 ng/mL, LPS 150 pg/mL): −29.4%, p = 0.008
- secreted TNFα level modulation vs positive control (LPS-stimulated PBMCs; 10 ng/mL, LPS 150 pg/mL): −44.0%, p = 0.116
- secreted GM-CSF level modulation vs positive control (LPS-stimulated PBMCs; 10 ng/mL, LPS 300 pg/mL): 29.1%, p < 0.001
- secreted IFNγ level modulation vs positive control (LPS-stimulated PBMCs; 10 ng/mL, LPS 300 pg/mL): −24.4%, p = 0.018
- secreted IL-1α level modulation vs positive control (LPS-stimulated PBMCs; 10 ng/mL, LPS 300 pg/mL): 2.0%, p = 0.550
- secreted IL-1β level modulation vs positive control (LPS-stimulated PBMCs; 10 ng/mL, LPS 300 pg/mL): −2.0%, p = 0,550
- secreted IL-6 level modulation vs positive control (LPS-stimulated PBMCs; 10 ng/mL, LPS 300 pg/mL): 2.0%, p = 0.736
- secreted IL-8 level modulation vs positive control (LPS-stimulated PBMCs; 10 ng/mL, LPS 300 pg/mL): −5.8%, p = 0.469
- secreted IL-10 level modulation vs positive control (LPS-stimulated PBMCs; 10 ng/mL, LPS 300 pg/mL): 8.3%, p = 0.178
- secreted IL-12 level modulation vs positive control (LPS-stimulated PBMCs; 10 ng/mL, LPS 300 pg/mL): 10.6%, p = 0.586
- secreted IL-17 level modulation vs positive control (LPS-stimulated PBMCs; 10 ng/mL, LPS 300 pg/mL): −31.6%, p < 0.001
- secreted IL-22 level modulation vs positive control (LPS-stimulated PBMCs; 10 ng/mL, LPS 300 pg/mL): −45.0%, p < 0.001
- secreted TNFα level modulation vs positive control (LPS-stimulated PBMCs; 10 ng/mL, LPS 300 pg/mL): −40.5%, p = 0.311
- secreted GM-CSF level modulation vs positive control (LPS-stimulated PBMCs; 100 ng/mL, LPS 150 pg/mL): 21.2%, p = 0.013
- secreted IFNγ level modulation vs positive control (LPS-stimulated PBMCs; 100 ng/mL, LPS 150 pg/mL): −40.5%, p = 0.008
- secreted IL-1α level modulation vs positive control (LPS-stimulated PBMCs; 100 ng/mL, LPS 150 pg/mL): −3.9%, p = 0.380
- secreted IL-1β level modulation vs positive control (LPS-stimulated PBMCs; 100 ng/mL, LPS 150 pg/mL): −13.1%, p = 0.002
- secreted IL-6 level modulation vs positive control (LPS-stimulated PBMCs; 100 ng/mL, LPS 150 pg/mL): 0.0%, p = 1.000
- secreted IL-8 level modulation vs positive control (LPS-stimulated PBMCs; 100 ng/mL, LPS 150 pg/mL): −9.5%, p = 0.077
- secreted IL-10 level modulation vs positive control (LPS-stimulated PBMCs; 100 ng/mL, LPS 150 pg/mL): −30.2%, p < 0.001
- secreted IL-12 level modulation vs positive control (LPS-stimulated PBMCs; 100 ng/mL, LPS 150 pg/mL): 17.2%, p = 0.544
- secreted IL-17 level modulation vs positive control (LPS-stimulated PBMCs; 100 ng/mL, LPS 150 pg/mL): −24.4%, p = 0.025
- secreted IL-22 level modulation vs positive control (LPS-stimulated PBMCs; 100 ng/mL, LPS 150 pg/mL): −23.7%, p = 0.241
- secreted TNFα level modulation vs positive control (LPS-stimulated PBMCs; 100 ng/mL, LPS 150 pg/mL): −34.3%, p = 0.232
- secreted GM-CSF level modulation vs positive control (LPS-stimulated PBMCs; 100 ng/mL, LPS 300 pg/mL): 88.8%, p < 0.001
- secreted IFNγ level modulation vs positive control (LPS-stimulated PBMCs; 100 ng/mL, LPS 300 pg/mL): −21.3%, p < 0.001
- secreted IL-1α level modulation vs positive control (LPS-stimulated PBMCs; 100 ng/mL, LPS 300 pg/mL): 6.2%, p = 0.188
- secreted IL-1β level modulation vs positive control (LPS-stimulated PBMCs; 100 ng/mL, LPS 300 pg/mL): 2.0%, p = 0.648
- secreted IL-6 level modulation vs positive control (LPS-stimulated PBMCs; 100 ng/mL, LPS 300 pg/mL): 0.0%, p = 1.000
- secreted IL-8 level modulation vs positive control (LPS-stimulated PBMCs; 100 ng/mL, LPS 300 pg/mL): 46.2%, p = 0.500
- secreted IL-10 level modulation vs positive control (LPS-stimulated PBMCs; 100 ng/mL, LPS 300 pg/mL): −28.8%, p < 0.001
- secreted IL-12 level modulation vs positive control (LPS-stimulated PBMCs; 100 ng/mL, LPS 300 pg/mL): 17.4%, p = 0.271
- secreted IL-17 level modulation vs positive control (LPS-stimulated PBMCs; 100 ng/mL, LPS 300 pg/mL): −30.2%, p < 0.001
- secreted IL-22 level modulation vs positive control (LPS-stimulated PBMCs; 100 ng/mL, LPS 300 pg/mL): −31.8%, p = 0.003
- secreted TNFα level modulation vs positive control (LPS-stimulated PBMCs; 100 ng/mL, LPS 300 pg/mL): −13.1%, p = 0.581
- Decreased secretion: number of treatments with statistically significant modulation (LPS-stimulated PBMCs; LPS 150 pg/mL): 16
- Increased secretion: number of treatments with statistically significant modulation (LPS-stimulated PBMCs; LPS 150 pg/mL): 1
- Decreased secretion: number of treatments with statistically significant modulation (LPS-stimulated PBMCs; LPS 300 pg/mL): 12
- Increased secretion: number of treatments with statistically significant modulation (LPS-stimulated PBMCs; LPS 300 pg/mL): 2
- attenuation of IL-6 secretion triggered by P1 [1]: −60%
